{"source": "paper PMC3174058", "about": "(Biochemical Journal, 2011)", "molecules": {"B1": {"name": "SOUL: human SOUL protein, recombinant, expressed in E. coli, histidine tag removed by thrombin (protein)", "chain": "MAEPLQPDPGAAEDAAAQAVETPGWKAPEDAGPQPGSYEIRHYGPAKWVSTSVESMDWDSAIQTGFTKLNSYIQGKNEKEMKIKMTAPVTSYVEPGSGPFSESTITISLYIPSEQQFDPPRPLESDVFIEDRAEMTVFVRSFDGFSSAQKNQEQLLTLASILREDGKVFDEKVYYTAGYNSPVKLLNRNNEVWLIQKNEPTKENE", "modifications": "left off: His tag, C-terminal, cleaved"}}, "key": {"Recombinant mouse SOUL": {"biological_target": "Recombinant mouse SOUL", "settings": "printed as range in words; ref [19] Sato et al., 2004; cited from earlier work"}, "15N-labelled SOUL": {"test_system": "15N-labelled SOUL", "experiment": "15N-1H HSQC NMR titration of 15N-labelled SOUL with haemin", "type": "binding, human", "settings": "0.5, 1, 2, 3 and 4 equivalents haemin, Tris/HCl buffer, 25 °C; more than 1 day of observation"}, "[1]": {"experiment": "UV–visible spectrum of haemin alone", "type": "physicochemical", "settings": "10 μM haemin; 20 mM Tris/HCl (pH 7.5), 0.15 M NaCl; 30 min, 25 °C"}, "[2]": {"biological_target": "human Bcl-xL lacking only the C-terminal transmembrane domain (after amino acid 209) (human, UniProt Q07817-1 1-209)", "sequence (Q07817 1-209)": "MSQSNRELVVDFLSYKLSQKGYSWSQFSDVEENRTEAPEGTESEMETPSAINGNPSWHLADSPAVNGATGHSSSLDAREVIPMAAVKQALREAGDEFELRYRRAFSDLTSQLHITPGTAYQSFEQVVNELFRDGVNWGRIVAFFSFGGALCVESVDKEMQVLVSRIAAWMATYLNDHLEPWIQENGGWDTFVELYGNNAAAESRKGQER", "experiment": "NMR titration"}, "caspase 8": {"test_system": "caspase 8", "experiment": "caspase 8 cleavage experiment", "type": "biochemical", "settings": "human BID as control; results not shown"}, "[3]": {"test_system": "mitochondrial permeability transition / cell death", "settings": "cited from earlier work"}}, "note": "Where “and” joins values, the source holds several entries; their conditions need not be identical. Equal values may be shown once."}
{"molecule": "C=CC1=C(C)c2cc3[n-]c(cc4[n-]c(cc5nc(cc1n2)C(C)=C5C=C)c(C)c4CCC(=O)O)c(CCC(=O)O)c3C.[Fe+2]", "note": "[haem]", "values": [{"measurement": "dissociation constant for haem binding", "setting": "Recombinant mouse SOUL", "result": "nanomolar range"}]}
{"molecule": "C=CC1=C(C)c2cc3[n-]c(cc4nc(cc5[n-]c(cc1n2)c(C)c5C=C)C(C)=C4CCC(=O)O)c(CCC(=O)O)c3C.[Cl-].[Fe+3]", "note": "[haemin]", "values": [{"measurement": "change of SOUL HSQC spectrum with haemin", "setting": "15N-labelled SOUL", "result": "the spectrum remained unaltered"}, {"measurement": "haemin absorption peak position, haemin alone", "setting": "[1]", "result": 390, "unit": "nM"}]}
{"molecule": "SAQKNQEQLLTLASILREDGKVFDEK", "note": "[SOUL BH3 peptide (26-amino-acid-long peptide spanning residues 147–172 of human SOUL)]", "values": [{"measurement": "Kd", "setting": "[2]", "result": "47.8 µM and 41.3 µM"}]}
{"molecule": "B1", "values": [{"measurement": "cleavage by caspase 8", "setting": "caspase 8", "result": "is not a substrate of this enzyme"}, {"measurement": "effect of deletion of putative BH3 domain on apoptotic effects", "setting": "[3]; human SOUL, BH3 domain deleted, ref [21] Szigeti et al., 2010", "result": "abolished the apoptotic effects of SOUL"}, {"measurement": "induction of MPT", "setting": "[3]; leads to mitochondrial swelling and cell death, ref [20] Szigeti et al., 2006", "result": "can induce the MPT"}]}
